Experimental data reported in paper PMC5900763, “Granule-stored MUC5B mucins are packed by the non-covalent formation of N-terminal head-to-head tetramers” (The Journal of Biological Chemistry, 2018).

Experiments:
[1] = target: the molecule itself; experiment: SEC; Superose 6 3.2/300, 50 mM MES pH 6.2, 150 mM NaCl, no Ca2+
[2] = target: the molecule itself; experiment: SEC; Superose 6 3.2/300, 50 mM MES pH 6.2, 150 mM NaCl, 4 mM CaCl2, 0 h incubation, room temperature; covalent dimers to tetramer

B1: MUC5B N-terminal part (MUC5B-N), recombinant covalent dimer (domain or fragment, human, UniProt Q9HC84 26-1304, looked up)
chain: QGPVEPSWENAGHTMDGGAPTSSPTRRVSFVPPVTVFPSLSPLNPAHNGRVCSTWGDFHYKTFDGDVFRFPGLCNYVFSEHCRAAYEDFNVQLRRGLVGSRPVVTRVVIKAQGLVLEASNGSVLINGQREELPYSRTGLLVEQSGDYIKVSIRLVLTFLWNGEDSALLELDPKYANQTCGLCGDFNGLPAFNEFYAHNARLTPLQFGNLQKLDGPTEQCPDPLPLPAGNCTDEEGICHRTLLGPAFAECHALVDSTAYLAACAQDLCRCPTCPCATFVEYSRQCAHAGGQPRNWRCPELCPRTCPLNMQHQECGSPCTDTCSNPQRAQLCEDHCVDGCFCPPGTVLDDITHSGCLPLGQCPCTHGGRTYSPGTSFNTTCSSCTCSGGLWQCQDLPCPGTCSVQGGAHISTYDEKLYDLHGDCSYVLSKKCADSSFTVLAELRKCGLTDNENCLKAVTLSLDGGDTAIRVQADGGVFLNSIYTQLPLSAANITLFTPSSFFIVVQTGLGLQLLVQLVPLMQVFVRLDPAHQGQMCGLCGNFNQNQADDFTALSGVVEATGAAFANTWKAQAACANARNSFEDPCSLSVENENYARHWCSRLTDPNSAFSRCHSIINPKPFHSNCMFDTCNCERSEDCLCAALSSYVHACAAKGVQLSDWRDGVCTKYMQNCPKSQRYAYVVDACQPTCRGLSEADVTCSVSFVPVDGCTCPAGTFLNDAGACVPAQECPCYAHGTVLAPGEVVHDEGAVCSCTGGKLSCLGASLQKSTGCAAPMVYLDCSNSSAGTPGAECLRSCHTLDVGCFSTHCVSGCVCPPGLVSDGSGGCIAEEDCPCVHNEATYKPGETIRVDCNTCTCRNRRWECSHRLCLGTCVAYGDGHFITFDGDRYSFEGSCEYILAQDYCGDNTTHGTFRIVTENIPCGTTGTTCSKAIKLFVESYELILQEGTFKAVARGPGGDPPYKIRYMGIFLVIETHGMAVSWDRKTSVFIRLHQDYKGRVCGLCGNFDDNAINDFATRSRSVVGDALEFGNSWKLSPSCPDALAPKDPCTANPFRKSWAQKQCSILHGPTFAACRSQVDSTKYYEACVNDACACDSGGDCECFCTAVAAYAQACHDAGLCVSWRTPDTCPLFCDFYNPHGGCEWHYQPCGAPCLKTCRNPSGHCLVDLPGLEGCYPKCPPSQPFFNEDQMKCVAQCGCYDKDGNYYDVGARVPTAENCQSCNCTPSGIQCAHSLEACTCTYEDRTYSYQDVIYNTTDGLGACLIAICGSNGTIIRKAVACPG
notes: MUC5B mucin, human, N-terminal part with the von Willebrand D1, D2, D' and D3 domains, residues 26-1304 of GenBank NM_002458; Disulfide-bonded (covalent) dimer through D3; Two such dimers form the non-covalent tetramer (Dx2) at pH 6.2 with Ca2+; also called MUC5B N-terminal covalent dimer; MUC5B N terminus; not shown: His6, N-terminal, kept
[1]
  stoichiometry N: 2
[2]
  stoichiometry N: 4
